Laboratory results published in patent US20190330277A1.

Target: bRSV ATue51908 postF (bovine respiratory syncytial virus, strain ATue51908), P22167
Assay: biolayer interferometry (Octet), variant on Ni-NTA tip, Fab in solution
Settings: remark: other sources report otherwise

B1: MPE8 Fab (Fab, V domains shown)
VH: EVQLVESGGGLVKPGGSLRLSCAASGFTFSSYSMNWVRQAPGKGLEWVSSISASSSYSDYADSAKGRFTISRDNAKTSLFLQMNSLRAEDTAIYFCARARATGYSSITPYFDIWGQGTLVTVSS
VL: QSVVTQTPSVSGAPGQRVTISCTGSSSNIGAGYDVHWYQQLPGTAPKLLIYDNNNRPSGVPDRFSASKSGTSASLAITGLQAEDEADYYCQSYDRNLSGVFGTGTKVTVL
With B1 the Kd was greater than 1000 nM.
